Results from US20040256230A1, “Microfluidic devices for transverse electrophoresis and isoelectric focusing” (University of Washington, priority 1999, published 2004).
Where “and” joins values, the source holds several entries; their conditions need not be identical. Identical values can stand only once.

Assays:
[1] = stated, literature or standard value; cited from earlier work
[2] = Isoelectric point by polyacrylamide gel isoelectric focusing, compared with positions of standards; format: physicochemical; settings: constant voltage, mini IEF cell
Experimental: The isoelectric points (pI) of proteins were determined experimentally by polyacrylamide gel isoelectric focusing, using the procedure specified by BiORad Laboratories, Inc. (Hercules, Calif.). A mini IEF cell (Model 111) purchased from BiORad equipped by two graphite electrodes was employed for this purpose. Focusing was carried out under constant voltage conditions (Power Pac 1000, BiORad).
(§1) Isoelectric points of proteins were determined by comparison with positions of standards.

[3] = Isoelectric focusing in the microchannel (microfluidic IEF), position of the focused zone; format: physicochemical; settings: 0.1 mM histidine buffer, initial pH 7.1, 2.5V for 6 minutes
Experimental: Bovine hemoglobin (Hb) was selected as a test case because of its strong absorbance at 550 nm (facilitating observation without need for additional dyes). The pI of Hb is 7.1, as verified by polyacrylamide gel isoelectric focusing run at the same concentration as was used for IEF in the microchannel. […] A voltage of 2.5V (resulting in a current of 5 μA) was applied for 6 minutes. Two zones of higher optical density close to the electrodes were formed within 15 s. They moved towards each other meeting to form one dark zone after 5 minutes. Even with a relatively high concentration of Hb (1.55×10^−4 M), the darker zones and their migration were barely visible in color images. Normalized plots of green pixel values vs. position allowed monitoring of Hb migration. The position of the final focused zone of Hb in the microchannel corresponded to a pH of 7.1±0.3 on the basis of previous results with acid-base indicators under similar conditions (FIG. 8). The pI value determined by IEF in the microchannel was within experimental error, identical to that in the literature and that determined by our gel IEF experiment.

[4] = Stability of the fluorescence of the BSA conjugate over a broad range of pH values; format: physicochemical; settings: pH 2.5 to 10.0, 1.52 μM, excitation 495 nm, every 30 minutes for 4.5 hours
Experimental: as §1
The fluorescence of the BSA-Bodipy FL conjugate is reported to be insensitive to pH between 4 and 8. […] A fluorescence spectrum from 500-550 nm for an excitation wavelength of 495.0±2.5 nm was recorded for each of the solutions immediately after its preparation and then after each 30 minutes for 4.5 hours.

Compound | isoelectric point (pI) [1] | pI determined by polyacrylamide gel isoelectric focusing [2] | pH corresponding to the position of the final focused zone in the microchannel [3] | change of fluorescence over time [4]
N[C@@H](Cc1c[nH]cn1)C(=O)O [histidine] | 7.4 |  |  | 
Bovine hemoglobin: bovine hemoglobin (Sigma), test analyte for isoelectric focusing | 7.1 | 7.1 | 7.1±0.3 | 
BSA conjugate: fluorescent bovine serum albumin (BSA)—Bodipy FL conjugate (Molecular Probes) |  | 4.6±0.1 and 4.65 |  | did not significantly change
phycocyanin | 4.65 |  |  | 
human hemoglobin A: pI standard in gel isoelectric focusing | 7.1 |  |  | 
